Assay results from article PMC6242706 (Molecular Cell, 2018).

Assays:
[1] = target: T1, Mouse UHRF1 (1-782), wild-type with the native N terminus (mouse, UniProt Q8VDF2 1-782); assay: pull-down
T1 sequence: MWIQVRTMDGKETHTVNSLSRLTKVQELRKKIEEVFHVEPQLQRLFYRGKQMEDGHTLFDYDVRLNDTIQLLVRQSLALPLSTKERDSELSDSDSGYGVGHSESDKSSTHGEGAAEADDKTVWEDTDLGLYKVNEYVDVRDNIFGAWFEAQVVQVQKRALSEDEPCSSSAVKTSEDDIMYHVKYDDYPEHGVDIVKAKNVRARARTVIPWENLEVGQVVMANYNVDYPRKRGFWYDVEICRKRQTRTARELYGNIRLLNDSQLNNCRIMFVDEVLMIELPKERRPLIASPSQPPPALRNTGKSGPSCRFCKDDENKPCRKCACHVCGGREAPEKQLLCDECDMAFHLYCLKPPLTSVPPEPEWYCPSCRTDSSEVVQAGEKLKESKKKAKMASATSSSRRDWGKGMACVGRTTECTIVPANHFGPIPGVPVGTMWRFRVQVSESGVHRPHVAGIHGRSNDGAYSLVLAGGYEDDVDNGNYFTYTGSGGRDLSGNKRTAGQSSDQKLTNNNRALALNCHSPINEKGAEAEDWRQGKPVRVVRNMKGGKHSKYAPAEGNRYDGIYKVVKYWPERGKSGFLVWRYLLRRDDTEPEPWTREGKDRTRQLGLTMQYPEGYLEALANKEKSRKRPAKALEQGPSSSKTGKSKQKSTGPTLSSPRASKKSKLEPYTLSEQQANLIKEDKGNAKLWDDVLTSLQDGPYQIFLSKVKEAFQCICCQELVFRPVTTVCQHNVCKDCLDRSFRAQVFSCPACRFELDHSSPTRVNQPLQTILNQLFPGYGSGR

[2] = target: T2, Mouse UHRF1 (1-782) F46A point mutant (mouse, UniProt Q8VDF2 1-782, F46A); assay: pull-down
T2 sequence: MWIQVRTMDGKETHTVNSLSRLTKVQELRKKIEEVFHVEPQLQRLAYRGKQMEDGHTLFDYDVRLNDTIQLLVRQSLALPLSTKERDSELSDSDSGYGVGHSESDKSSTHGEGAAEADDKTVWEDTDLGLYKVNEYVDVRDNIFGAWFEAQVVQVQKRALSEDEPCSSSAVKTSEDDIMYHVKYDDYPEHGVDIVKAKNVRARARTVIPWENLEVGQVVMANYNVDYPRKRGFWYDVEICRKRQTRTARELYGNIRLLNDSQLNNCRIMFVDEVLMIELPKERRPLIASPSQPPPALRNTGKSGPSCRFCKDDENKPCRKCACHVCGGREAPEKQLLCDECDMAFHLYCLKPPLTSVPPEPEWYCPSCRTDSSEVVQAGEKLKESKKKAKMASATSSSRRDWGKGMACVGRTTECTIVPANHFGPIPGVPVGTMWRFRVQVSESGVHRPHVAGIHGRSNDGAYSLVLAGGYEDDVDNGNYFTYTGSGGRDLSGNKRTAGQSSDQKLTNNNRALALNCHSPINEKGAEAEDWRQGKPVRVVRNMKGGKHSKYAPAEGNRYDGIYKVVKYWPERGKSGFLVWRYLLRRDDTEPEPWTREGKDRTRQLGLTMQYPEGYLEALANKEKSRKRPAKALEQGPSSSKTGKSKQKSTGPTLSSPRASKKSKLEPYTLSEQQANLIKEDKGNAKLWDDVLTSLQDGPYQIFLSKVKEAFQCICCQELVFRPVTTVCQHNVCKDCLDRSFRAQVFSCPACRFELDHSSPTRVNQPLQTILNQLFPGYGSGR

Mouse UHRF1^ΔMW (3-782) [3] = target: T3, Mouse UHRF1^ΔMW (3-782) (mouse, UniProt Q8VDF2 3-782); assay: pull-down
T3 sequence: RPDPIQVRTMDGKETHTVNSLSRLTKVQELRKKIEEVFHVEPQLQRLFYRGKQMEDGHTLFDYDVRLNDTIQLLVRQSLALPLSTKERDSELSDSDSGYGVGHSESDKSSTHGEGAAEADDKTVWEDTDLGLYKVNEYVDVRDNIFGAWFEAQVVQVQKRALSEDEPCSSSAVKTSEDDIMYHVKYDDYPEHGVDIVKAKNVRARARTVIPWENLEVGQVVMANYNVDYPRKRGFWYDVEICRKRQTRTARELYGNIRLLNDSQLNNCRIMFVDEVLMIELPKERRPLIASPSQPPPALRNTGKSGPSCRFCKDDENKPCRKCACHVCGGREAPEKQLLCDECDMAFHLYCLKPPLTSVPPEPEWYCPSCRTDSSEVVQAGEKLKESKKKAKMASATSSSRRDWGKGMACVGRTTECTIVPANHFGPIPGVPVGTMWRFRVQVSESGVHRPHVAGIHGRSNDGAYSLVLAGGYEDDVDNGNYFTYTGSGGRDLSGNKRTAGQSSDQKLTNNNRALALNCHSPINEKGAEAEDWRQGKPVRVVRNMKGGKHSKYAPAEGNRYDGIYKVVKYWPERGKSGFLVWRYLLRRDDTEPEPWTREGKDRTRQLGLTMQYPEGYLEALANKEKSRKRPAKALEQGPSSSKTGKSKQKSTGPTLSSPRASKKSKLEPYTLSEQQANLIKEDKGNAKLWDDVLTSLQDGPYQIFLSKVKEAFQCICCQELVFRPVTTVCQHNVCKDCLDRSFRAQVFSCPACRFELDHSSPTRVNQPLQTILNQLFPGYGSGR

Mouse UHRF1^ΔMW (3-782) [4] = target: T3, Mouse UHRF1^ΔMW (3-782); assay: cross-linking
[5] = target: T1, Mouse UHRF1 (1-782), wild-type with the …; assay: cross-linking

B1: GST-UbcH5a (human UBE2D1, wild-type) (enzyme)
chain: not shown
binding result [1]: binds
binding result [2]: binds
binding result (Mouse UHRF1^ΔMW (3-782) [3]): binds

B2: GST-UbcH5a S22R (human UBE2D1 S22R) (enzyme)
chain: not shown
binding result [1]: binds

B3: UbcH5a (human UBE2D1), without GST (enzyme)
chain: not shown
binding result (Mouse UHRF1^ΔMW (3-782) [4]): binds
binding result [5]: binds
